Target: SARS-CoV-2 nsp12 (SARS-CoV-2, UniProt P0DTD1)
Assay: cryo-EM structure

| Binder | binding result |
| --- | --- |
| SARS-CoV-2 nsp9 (natural protein) NNELSPVALRQMSCAAGTTQTACTDDNALAYYNTTKGGRFVLALLSDLQDLKWARFPKSDGTGTIYTELEPPCRFVTDTPKGPKVKYLYFIKGLNNLNRGMVLGSLAATVRLQ | binds |
| RNAylated-nsp9 (20mer RNA) (natural protein) NNELSPVALRQMSCAAGTTQTACTDDNALAYYNTTKGGRFVLALLSDLQDLKWARFPKSDGTGTIYTELEPPCRFVTDTPKGPKVKYLYFIKGLNNLNRGMVLGSLAATVRLQ | binds |

Source: publication PMC10843261 (Molecular cell, 2023)
